{"source": "paper PMC8941942", "about": "“Functional and Structural Characterization of Diverse NfsB Chloramphenicol Reductase Enzymes from Human Pathogens” (Microbiology Spectrum, 2022)", "key": {"[1]": {"target": "T1, Ng FA1090 NfsB (Neisseria gonorrhoeae, UniProt Q5F9K5)", "T1 construct": "gene NGO_0388", "T1 sequence (Q5F9K5 1-221)": "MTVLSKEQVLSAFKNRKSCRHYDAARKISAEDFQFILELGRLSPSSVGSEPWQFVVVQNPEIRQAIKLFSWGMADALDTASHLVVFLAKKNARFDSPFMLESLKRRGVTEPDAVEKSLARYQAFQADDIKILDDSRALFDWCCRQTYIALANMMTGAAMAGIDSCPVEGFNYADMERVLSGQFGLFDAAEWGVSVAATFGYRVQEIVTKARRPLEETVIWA", "format": "cell-based", "conditions": "100 µg/mL chloramphenicol, MDG medium, 37°C; compared with empty vector"}, "[2]": {"tested_on": "NC(=O)C1=CN([C@@H]2O[C@H](COP(=O)(O)OP(=O)(O)OC[C@H]3O[C@@H](n4cnc5c(N)ncnc54)[C@H](OP(=O)(O)O)[C@@H]3O)[C@@H](O)[C@H]2O)C=CC1", "assay": "purified protein", "conditions": "apparent, 1 mM chloramphenicol, 1 µM FMN, 50 mM Tris pH 8, ~23°C"}, "[3]": {"tested_on": "O=C(N[C@H](CO)[C@H](O)c1ccc([N+](=O)[O-])cc1)C(Cl)Cl", "assay": "purified protein", "conditions": "apparent, 1 mM NADPH, 1 µM FMN, 50 mM Tris pH 8, ~23°C"}}, "data": [{"molecule": "O=C(N[C@H](CO)[C@H](O)c1ccc([N+](=O)[O-])cc1)C(Cl)Cl", "note": "[chloramphenicol]", "values": [{"measurement": "Bratton-Marshall assay of resting E. coli expressing nfsB", "setting": "[1]", "value": "Es. coli strains expressing H. influenzae or Neisseria nfsB genes showed robust signal"}]}, {"molecule": "Hi KW20 NfsB (Haemophilus influenzae Rd KW20)", "values": [{"measurement": "Km", "setting": "[2]", "value": "49 ± 6", "unit": "µM"}, {"measurement": "kcat", "setting": "[2]", "value": "13 ± 0.5", "unit": "s⁻¹"}, {"measurement": "kcat/Km", "setting": "[2]", "value": 278000, "unit": "M⁻¹ s⁻¹"}, {"measurement": "Km", "setting": "[3]", "value": "260 ± 20", "unit": "µM"}, {"measurement": "kcat", "setting": "[3]", "value": "14 ± 0.3", "unit": "s⁻¹"}, {"measurement": "kcat/Km", "setting": "[3]", "value": 55500, "unit": "M⁻¹ s⁻¹"}]}, {"molecule": "Nm Z2491 NfsB (Neisseria meningitidis Z2491)", "values": [{"measurement": "Km", "setting": "[2]", "value": "22 ± 4", "unit": "µM"}, {"measurement": "kcat", "setting": "[2]", "value": "8.2 ± 0.3", "unit": "s⁻¹"}, {"measurement": "kcat/Km", "setting": "[2]", "value": 388000, "unit": "M⁻¹ s⁻¹"}, {"measurement": "Km", "setting": "[3]", "value": "1,300 ± 800 μM"}, {"measurement": "kcat", "setting": "[3]", "value": "8.9 ± 3", "unit": "s⁻¹"}, {"measurement": "kcat/Km", "setting": "[3]", "value": 8120, "unit": "M⁻¹ s⁻¹"}]}, {"molecule": "Hi 86-028NP NfsB (Haemophilus influenzae 86-028NP)", "values": [{"measurement": "Km", "setting": "[2]", "value": "21 ± 2", "unit": "µM"}, {"measurement": "kcat", "setting": "[2]", "value": "9.9 ± 0.6", "unit": "s⁻¹"}, {"measurement": "kcat/Km", "setting": "[2]", "value": 478000, "unit": "M⁻¹ s⁻¹"}, {"measurement": "Km", "setting": "[3]", "value": "200 ± 40", "unit": "µM"}, {"measurement": "kcat", "setting": "[3]", "value": "8.7 ± 0.9", "unit": "s⁻¹"}, {"measurement": "kcat/Km", "setting": "[3]", "value": 44500, "unit": "M⁻¹ s⁻¹"}]}]}
